Substitutions are numbered along the chain they refer to. Names and notes keep the numbering of the source.
B1: Y329N (protein)
chain: MQLRNPELHLGCALALRFLALVSWDIPGARALDNGLARTPTMGWLHWERFMCNLDCQEEPDSCISEKLFMEMAELMVSEGWKDAGYEYLCIDDCWMAPQRDSEGRLQADPQRFPHGIRQLANYVHSKGLKLGIYADVGNKTCAGFPGSFGYYDIDAQTFADWGVDLLKFDGCYCDSLENLADGYKHMSLALNRTGRSIVYSCEWPLYMWPFQKPNYTEIRQYCNHWRNFADIDDSWKSIKSILDWTSFNQERIVDVAGPGGWNDPDMLVIGNFGLSWNQQVTQMALWAIMAAPLFMSNDLRHISPQAKALLQDKDVIAINQDPLGKQGNQLRQGDNFEVWERPLSGLAWAVAMINRQEIGGPRSYTIAVASLGKGVACNPACFITQLLPVKRKLGFYEWTSRLRSHINPTGTVLLQLENTMQMSLKDLL
B2: Q330H (protein)
chain: B1 chain with N329Y, Q330H
B3: L331R (protein)
chain: B1 chain with N329Y, L331R
B4: L331H (protein)
chain: B1 chain with N329Y, L331H
B5: Q330E (protein)
chain: B1 chain with N329Y, Q330E
B6: L331P (protein)
chain: B1 chain with N329Y, L331P
B7: Q330K (protein)
chain: B1 chain with N329Y, Q330K

System: mutant form of α-Gal A expressed in HEK-293 cells
Assay: HEK assay (GLP HEK / Migalastat Amenability Assay): α-Gal A activity in lysates of transiently transfected HEK-293 cells incubated with or without 10 μM migalastat
Format: cell-based, human
Conditions: for Absolute increase (% WT) / Relative increase: 10 μM migalastat versus baseline; for Baseline α-Gal A activity (% WT): absence of migalastat; for Baseline α-Gal A activity (% WT) / 10 μM migalastat α-Gal A activity (% WT): percentage of baseline wild-type α-Gal A activity; for Baseline α-Gal A activity (% WT) / Baseline α-Gal A activity / 10 μM migalastat α-Gal A activity / 10 μM migalastat α-Gal A activity (% WT): mean ± SEM; for Baseline α-Gal A activity / 10 μM migalastat α-Gal A activity: lysates of HEK-293 cells transiently transfected with the mutant form; for Baseline α-Gal A activity: incubated 5 days in absence of migalastat; for 10 μM migalastat α-Gal A activity: incubated 5 days with 10 μM migalastat; for 10 μM migalastat α-Gal A activity (% WT): with 10 μM migalastat, 5 days
Method in brief: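 Activity reported as 4-MU released (nmol/mg/hr), mean±SEM, from lysates of transiently transfected HEK-293 cells expressing mutant α-Gal A, cultured with or without 10 μM migalastat.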

Molecule	Absolute increase (% WT)	Relative increase	Baseline α-Gal A activity (% WT)	Baseline α-Gal A activity [nmol/mg/h]	10 μM migalastat α-Gal A activity [nmol/mg/h]	10 μM migalastat α-Gal A activity (% WT)
B1	15.6	1.7	21.8 ± 1.5	6448 ± 436	11035 ± 429	37.4 ± 1.2
B2	40.8	2.2	33.1 ± 2.8	9296 ± 649	20752 ± 592	73.9 ± 3.6
B3	23.3	1.6	33.2 ± 1.5	9725 ± 634	15841 ± 639	56.5 ± 3.2
B4	25.9	1.6	42 ± 3.2	11743 ± 634	19003 ± 791	67.9 ± 4.3
B5	19.9	1.7	26.4 ± 1.5	7500 ± 345	13086 ± 589	46.4 ± 2.6
B6	3.1	6.5	0.6 ± 0.1	157 ± 20	1029 ± 32	3.7 ± 0.2
B7	21.1	1.3	71 ± 2.7	20289 ± 720	26149 ± 1074	92.1 ± 4.2
